Results reported in US20240360436A1.

T1: TIGIT antigen (UniProt Q495A1)
T1 sequence (looked up): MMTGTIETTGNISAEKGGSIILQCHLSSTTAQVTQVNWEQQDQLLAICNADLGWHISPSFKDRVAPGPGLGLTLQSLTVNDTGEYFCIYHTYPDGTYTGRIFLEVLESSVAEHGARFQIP


These binders were tested against T1, TIGIT antigen (assay: ELISA on TIGIT antigen, OD405).

ELISA OD405 Reading [OD405] | Binder
0.474 | TT385 (Fab, part only; not given: Tiragolumab light chain, V domains shown, part only) VH: EVQLVESGPEVKKPGTSVKVSCKASGLTFSRSAVQWLRQARGQRLEWIGWVDVASSNTNYAQKFQERVTITRDMSTSTAYMELSNLRTEDTAVYYCAADLYGFWGVQGFDPWGQGTMVTVSS
0.471 | TT357 (Fab, part only; not given: Tiragolumab light chain, V domains shown, part only) VH: QVQLVQSGGGLVQPGGSLRLSCAASGFTFSRYWMTWVRQAPGKGLEWVANTNQDGSETYYVDSVKGRFTISRDNAKNSLYLQMNSLRAEDTAVYYCARRWSGYHDGSGYDYFDYWDQGTLVTVSS
0.547 | TT321 (Fab, part only; not given: Tiragolumab light chain, V domains shown, part only) VH: EVQLVESGGGLVQPGGSLRLSCAASGFTFNMYAMSWVRQGPGKGLEWVSTISGGAGSTYYADSVKGRFTISRDNSKNTVYLQMNSLRAEDTAVYYCASEVVAATTLDYWGQGTTVTVSS
